Experimental data taken from the supplement of paper PMC10567573.

B1: FBXO39 (parent)
chain: PSRVHASEVESAVWYVKKFGRYLE
B2: MATN2 (parent)
chain: TDDSYSCHCLKGFTLNPDKKTCRR
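Further: lentivirally expressed fusions sorted by FACS into six bins by GFP to DsRed ratio, PSI derived from sequencing read proportions per bin multiplied by bin number.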

Variants of: B1
Assay: protein stability index of a GFP-peptide fusion (GPS, HEK-293T) (PSI 1-6); higher = more stable
Conditions: c terminus: a fixed tail appended
Work on PSRVHASEVESAVWYVKKFGRYFE yielded a protein stability index of 2.05. For PSRVHASEVESAVWYVKKFGRYGE, the protein stability index was 1.48. Work on PSRVHASEVESAVWYVKKFGRYHE yielded a protein stability index of 2.45. Variant PSRVHASEVESAVWYVKKFGRYIE has a protein stability index of 2.17. For PSRVHASEVESAVWYVKKFGRYKE, the protein stability index was 3.07. Work on PSRVHASEVESAVWYVKKFGRYME yielded a protein stability index of 2.09. In the case of PSRVHASEVESAVWYVKKFGRYNE, the protein stability index is reported as 2.5. PSRVHASEVESAVWYVKKFGRYPE showed a protein stability index of 2.58. In the case of PSRVHASEVESAVWYVKKFGRYQE, the protein stability index is reported as 2.74. Variant PSRVHASEVESAVWYVKKFGRYRE has a protein stability index of 2.5. PSRVHASEVESAVWYVKKFGRYSE gave a protein stability index of 2.76. Work on PSRVHASEVESAVWYVKKFGRYTE yielded a protein stability index of 2.32. PSRVHASEVESAVWYVKKFGRYVE gave a protein stability index of 2.49. PSRVHASEVESAVWYVKKFGRYWE showed a protein stability index of 2.08. PSRVHASEVESAVWYVKKFGRYYE showed a protein stability index of 2.53. PSRVHASEVESAVWYVKKFGRYLA gave a protein stability index of 1.59. In the case of PSRVHASEVESAVWYVKKFGRYLC, the protein stability index is reported as 2.42. Variant PSRVHASEVESAVWYVKKFGRYLD has a protein stability index of 1.9. Variant PSRVHASEVESAVWYVKKFGRYLF has a protein stability index of 1.94. PSRVHASEVESAVWYVKKFGRYLG showed a protein stability index of 1.94. Work on PSRVHASEVESAVWYVKKFGRYLH yielded a protein stability index of 1.94. Work on PSRVHASEVESAVWYVKKFGRYLI yielded a protein stability index of 2.01. PSRVHASEVESAVWYVKKFGRYLK showed a protein stability index of 2.13. PSRVHASEVESAVWYVKKFGRYLL showed a protein stability index of 1.54. Work on PSRVHASEVESAVWYVKKFGRYLM yielded a protein stability index of 2.07. Work on PSRVHASEVESAVWYVKKFGRYLN yielded a protein stability index of 2.06. Variant PSRVHASEVESAVWYVKKFGRYLP has a protein stability index of 2.26. For PSRVHASEVESAVWYVKKFGRYLQ, the protein stability index was 1.99. Work on PSRVHASEVESAVWYVKKFGRYLR yielded a protein stability index of 2.22. With PSRVHASEVESAVWYVKKFGRYLS the protein stability index was 1.83. PSRVHASEVESAVWYVKKFGRYLT gave a protein stability index of 2.55. For PSRVHASEVESAVWYVKKFGRYLV, the protein stability index was 1.74. With PSRVHASEVESAVWYVKKFGRYLW the protein stability index was 2.33. With PSRVHASEVESAVWYVKKFGRYLY the protein stability index was 2.2.

Variants of: B2
Assay: as above
Conditions: c terminus: a fixed tail appended
ADDSYSCHCLKGFTLNPDKKTCRR showed a protein stability index of 2.47. In the case of CDDSYSCHCLKGFTLNPDKKTCRR, the protein stability index is reported as 2. Work on DDDSYSCHCLKGFTLNPDKKTCRR yielded a protein stability index of 2.55. For EDDSYSCHCLKGFTLNPDKKTCRR, the protein stability index was 2.09. FDDSYSCHCLKGFTLNPDKKTCRR showed a protein stability index of 2.21. Work on GDDSYSCHCLKGFTLNPDKKTCRR yielded a protein stability index of 2.71. Variant HDDSYSCHCLKGFTLNPDKKTCRR has a protein stability index of 2.7. IDDSYSCHCLKGFTLNPDKKTCRR gave a protein stability index of 2.1. With KDDSYSCHCLKGFTLNPDKKTCRR the protein stability index was 1.75. In the case of LDDSYSCHCLKGFTLNPDKKTCRR, the protein stability index is reported as 2.36. MDDSYSCHCLKGFTLNPDKKTCRR showed a protein stability index of 2.47. Work on NDDSYSCHCLKGFTLNPDKKTCRR yielded a protein stability index of 1.86. Work on PDDSYSCHCLKGFTLNPDKKTCRR yielded a protein stability index of 2.81. In the case of QDDSYSCHCLKGFTLNPDKKTCRR, the protein stability index is reported as 1.75. Work on RDDSYSCHCLKGFTLNPDKKTCRR yielded a protein stability index of 2.95. For SDDSYSCHCLKGFTLNPDKKTCRR, the protein stability index was 2.63. Work on VDDSYSCHCLKGFTLNPDKKTCRR yielded a protein stability index of 3.42. With WDDSYSCHCLKGFTLNPDKKTCRR the protein stability index was 2.35. Work on TADSYSCHCLKGFTLNPDKKTCRR yielded a protein stability index of 1.88. In the case of TCDSYSCHCLKGFTLNPDKKTCRR, the protein stability index is reported as 1.88. Work on TEDSYSCHCLKGFTLNPDKKTCRR yielded a protein stability index of 1.98. For TFDSYSCHCLKGFTLNPDKKTCRR, the protein stability index was 1.41. For TGDSYSCHCLKGFTLNPDKKTCRR, the protein stability index was 2.98. Variant THDSYSCHCLKGFTLNPDKKTCRR has a protein stability index of 2.15. With TIDSYSCHCLKGFTLNPDKKTCRR the protein stability index was 2.02. For TKDSYSCHCLKGFTLNPDKKTCRR, the protein stability index was 2.85. Work on TLDSYSCHCLKGFTLNPDKKTCRR yielded a protein stability index of 2.81. In the case of TMDSYSCHCLKGFTLNPDKKTCRR, the protein stability index is reported as 2.09. TNDSYSCHCLKGFTLNPDKKTCRR showed a protein stability index of 2.32. With TPDSYSCHCLKGFTLNPDKKTCRR the protein stability index was 1.66. Work on TQDSYSCHCLKGFTLNPDKKTCRR yielded a protein stability index of 1.82. With TRDSYSCHCLKGFTLNPDKKTCRR the protein stability index was 2.29. TSDSYSCHCLKGFTLNPDKKTCRR showed a protein stability index of 2.11. Variant TTDSYSCHCLKGFTLNPDKKTCRR has a protein stability index of 2.08. With TWDSYSCHCLKGFTLNPDKKTCRR the protein stability index was 2.24. With TYDSYSCHCLKGFTLNPDKKTCRR the protein stability index was 1.26. In the case of TDASYSCHCLKGFTLNPDKKTCRR, the protein stability index is reported as 2.24. TDCSYSCHCLKGFTLNPDKKTCRR gave a protein stability index of 2.17. With TDESYSCHCLKGFTLNPDKKTCRR the protein stability index was 1.73. Work on TDFSYSCHCLKGFTLNPDKKTCRR yielded a protein stability index of 1.67. Work on TDGSYSCHCLKGFTLNPDKKTCRR yielded a protein stability index of 2.36. For TDHSYSCHCLKGFTLNPDKKTCRR, the protein stability index was 2.15. Variant TDISYSCHCLKGFTLNPDKKTCRR has a protein stability index of 1.91. TDKSYSCHCLKGFTLNPDKKTCRR showed a protein stability index of 1.93. Variant TDLSYSCHCLKGFTLNPDKKTCRR has a protein stability index of 2.36. With TDMSYSCHCLKGFTLNPDKKTCRR the protein stability index was 2.31. TDNSYSCHCLKGFTLNPDKKTCRR gave a protein stability index of 2.1. In the case of TDPSYSCHCLKGFTLNPDKKTCRR, the protein stability index is reported as 2.93. For TDQSYSCHCLKGFTLNPDKKTCRR, the protein stability index was 2.13. For TDRSYSCHCLKGFTLNPDKKTCRR, the protein stability index was 2.2. TDSSYSCHCLKGFTLNPDKKTCRR gave a protein stability index of 2.24. TDTSYSCHCLKGFTLNPDKKTCRR gave a protein stability index of 2.01. TDVSYSCHCLKGFTLNPDKKTCRR gave a protein stability index of 2.41. Variant TDWSYSCHCLKGFTLNPDKKTCRR has a protein stability index of 1.41. With TDYSYSCHCLKGFTLNPDKKTCRR the protein stability index was 1.76. With TDDAYSCHCLKGFTLNPDKKTCRR the protein stability index was 1.34. Work on TDDCYSCHCLKGFTLNPDKKTCRR yielded a protein stability index of 1.8. With TDDDYSCHCLKGFTLNPDKKTCRR the protein stability index was 2. Variant TDDEYSCHCLKGFTLNPDKKTCRR has a protein stability index of 2.79. For TDDFYSCHCLKGFTLNPDKKTCRR, the protein stability index was 1.83.
